The results in this text go back to publication PMC9458460, “Structural basis of 3′-end poly(A) RNA recognition by LARP1”.

Data set [1] concerns the target T1, LARP1 LaM (UniProt Q6PKG0-3 323-410). Nature of the data set: ITC; 10 mM MES pH 6.3, 100 mM NaCl, 1 mM TCEP (HPLC and NMR buffer; ITC buffer not stated separately); ITC 293 K, NMR 25 C. Background: ITC needs no label: the signal is the heat of the interaction.
The target of data set [2] is T1, LARP1 LaM. The data set is described as above. This is another data set of the same source.
The next data set concerns the target LARP1 LaM R345A (UniProt Q6PKG0-3 323-410, R345A). The description is as above.
A further data set addresses LARP1 LaM Q333A (UniProt Q6PKG0-3 323-410, Q333A). Described as above.
The next data set has as its target LARP1 LaM Y336A/F348A (UniProt Q6PKG0-3 323-410, Y336A;F348A). Described as above.
The target of another data set is LARP1 LaM Q333A/F348A (UniProt Q6PKG0-3 323-410, Q333A;F348A). Described as above.
For data set [3], the target named is LARP1 323-509 Y336A/F348A (UniProt Q6PKG0-3 323-509, Y336A;F348A). The data set is described as above. Conditions: protein: recombinant.
The target in data set [4] is LARP1 323-509 Q333A/F348A (UniProt Q6PKG0-3 323-509, Q333A;F348A). The description is as above. To be noted: protein: recombinant.
Another data set has as its target LARP1 LaM-RRM region (UniProt Q6PKG0-3 323-509). The description is as above. Conditions: protein: recombinant.
The target of data set [5] is T1, LARP1 LaM. Nature of the data set: crystal structure; 1.15 A; 10 mM MES pH 6.3, 100 mM NaCl, 1 mM TCEP (HPLC and NMR buffer; ITC buffer not stated separately); ITC 293 K, NMR 25 C.

Consider ACAAAA (ssRNA) [ACA4], for which the binding result with LARP1 LaM [1] is “binds”.
As for GGGGGG (ssRNA) [G6], in the data set with LARP1 LaM [2], the binding signal was ~10 fold weaker than A6.
For the molecule AAAAAA (ssRNA, 3' phosphate) [A5A(p)], the binding signal in the data set with LARP1 LaM [2] is ~200 fold weaker than A6.
For the molecule AAAA (ssRNA) [A4], the binding signal with LARP1 LaM R345A is ~2 fold weaker than wild type; with LARP1 LaM Q333A, ~20 fold weaker than wild type. The values for the binding result with LARP1 LaM Y336A/F348A, with LARP1 LaM [1] and in the data set with LARP1 LaM Q333A/F348A were “no binding”, “binds” and “no binding”, respectively.
CCCCCC (ssRNA) [C6]: the binding signal with LARP1 LaM [2] was > 200 fold weaker than A6.
For AAAACA (ssRNA) [A4CA], the binding signal with LARP1 LaM [2] was ~10 fold weaker than A6.
For AAAUAA (ssRNA) [A3UA2], in the data set with LARP1 LaM [1], the binding result is listed as “binds”.
Take AAACAA (ssRNA) [A3CA2]: in the data set with LARP1 LaM [1], the binding result is on record as “binds”.
Consider AACAAA (ssRNA) [A2CA3], for which the binding result in the data set with LARP1 LaM [1] was “binds”.
The Kd is the concentration at which binding is half-saturated. Consider AAAAAAAAAAAAAAAAAAAAAAAAA (ssRNA) [A25], for which the binding result in data set [3] and in data set [4] was “no binding” in each case. Also, the results for the Kd in the data set with LARP1 LaM-RRM region and with LARP1 LaM [1] were ~200 nM and < 1000 nM, respectively.
Regarding AAA (ssRNA) [A3], in the data set with LARP1 LaM [5], the binding result was “binds”.
In the case of AAAAAC (ssRNA) [A5C], the binding signal with LARP1 LaM [2] was ~10 fold weaker than A6.
With UUUUUU (ssRNA) [U6], the binding signal in the data set with LARP1 LaM [2] was ~10 fold weaker than A6.
On to AAAAAA (ssRNA) [A6], for which, in the data set with LARP1 LaM [1], the binding result is “binds”.
For the molecule AAAAAAAAAAA (ssRNA) [A11], in the data set with LARP1 LaM [1], the binding result is “binds”.
